Reference: publication PMC12098889, “Structural insight into PIF6-mediated red light signal transduction of plant phytochrome B” (Cell Discovery, 2025)

T1: phyBN (residues 1‒908 of phyB) (Arabidopsis, UniProt P14713 1-908, PΦB chromophore covalently bound)
T1 construct: Arabidopsis phytochrome B, residues 1-908 (HKRD truncated); also called phyBN-Pfr (red light-irradiated); source: E. coli BL21(DE3), co-expressed with HO1 and HY2, purified; not shown: 3× Flag, N-terminal, kept
T1 sequence (looked up): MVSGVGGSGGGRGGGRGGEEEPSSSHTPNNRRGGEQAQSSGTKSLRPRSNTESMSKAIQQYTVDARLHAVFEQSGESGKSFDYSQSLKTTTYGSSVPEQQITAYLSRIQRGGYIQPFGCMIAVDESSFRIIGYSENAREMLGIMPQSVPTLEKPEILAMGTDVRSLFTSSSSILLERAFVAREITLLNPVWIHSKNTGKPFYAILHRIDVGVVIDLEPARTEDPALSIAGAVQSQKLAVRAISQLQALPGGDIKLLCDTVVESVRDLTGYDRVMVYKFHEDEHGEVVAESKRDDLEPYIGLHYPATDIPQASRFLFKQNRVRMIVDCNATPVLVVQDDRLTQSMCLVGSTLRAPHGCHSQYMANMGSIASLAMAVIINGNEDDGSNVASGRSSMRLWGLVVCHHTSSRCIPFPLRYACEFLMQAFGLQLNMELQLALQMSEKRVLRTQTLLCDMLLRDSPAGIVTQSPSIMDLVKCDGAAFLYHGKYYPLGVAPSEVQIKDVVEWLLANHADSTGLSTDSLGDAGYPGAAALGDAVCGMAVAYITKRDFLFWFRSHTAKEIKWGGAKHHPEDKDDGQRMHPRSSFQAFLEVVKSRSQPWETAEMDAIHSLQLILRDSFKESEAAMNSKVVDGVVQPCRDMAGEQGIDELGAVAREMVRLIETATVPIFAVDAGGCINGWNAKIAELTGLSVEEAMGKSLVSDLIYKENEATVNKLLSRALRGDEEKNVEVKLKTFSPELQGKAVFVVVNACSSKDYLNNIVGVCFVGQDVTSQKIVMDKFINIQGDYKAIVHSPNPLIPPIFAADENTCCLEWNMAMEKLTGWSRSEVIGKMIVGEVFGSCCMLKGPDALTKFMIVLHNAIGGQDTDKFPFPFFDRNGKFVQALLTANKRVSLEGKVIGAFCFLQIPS

T2: phytochrome B (phyB), full length (1‒1172) (Arabidopsis, UniProt P14713 1-1172, PΦB chromophore covalently linked to C357)
T2 construct: Arabidopsis phytochrome B, residues 1-1172, At2g18790; The same protein is Pr in the dark and Pfr after red light; The purification uses Ni-NTA, but no His tag on phyB is described; also called wild-type phyB; phyB-Pr (dark); source: E. coli BL21(DE3), co-expressed with HO1 and HY2, purified (Ni-NTA, anti-FLAG resin, Source Q); not shown: 3× Flag ([residues removed]), N-terminal, kept
T2 sequence (looked up): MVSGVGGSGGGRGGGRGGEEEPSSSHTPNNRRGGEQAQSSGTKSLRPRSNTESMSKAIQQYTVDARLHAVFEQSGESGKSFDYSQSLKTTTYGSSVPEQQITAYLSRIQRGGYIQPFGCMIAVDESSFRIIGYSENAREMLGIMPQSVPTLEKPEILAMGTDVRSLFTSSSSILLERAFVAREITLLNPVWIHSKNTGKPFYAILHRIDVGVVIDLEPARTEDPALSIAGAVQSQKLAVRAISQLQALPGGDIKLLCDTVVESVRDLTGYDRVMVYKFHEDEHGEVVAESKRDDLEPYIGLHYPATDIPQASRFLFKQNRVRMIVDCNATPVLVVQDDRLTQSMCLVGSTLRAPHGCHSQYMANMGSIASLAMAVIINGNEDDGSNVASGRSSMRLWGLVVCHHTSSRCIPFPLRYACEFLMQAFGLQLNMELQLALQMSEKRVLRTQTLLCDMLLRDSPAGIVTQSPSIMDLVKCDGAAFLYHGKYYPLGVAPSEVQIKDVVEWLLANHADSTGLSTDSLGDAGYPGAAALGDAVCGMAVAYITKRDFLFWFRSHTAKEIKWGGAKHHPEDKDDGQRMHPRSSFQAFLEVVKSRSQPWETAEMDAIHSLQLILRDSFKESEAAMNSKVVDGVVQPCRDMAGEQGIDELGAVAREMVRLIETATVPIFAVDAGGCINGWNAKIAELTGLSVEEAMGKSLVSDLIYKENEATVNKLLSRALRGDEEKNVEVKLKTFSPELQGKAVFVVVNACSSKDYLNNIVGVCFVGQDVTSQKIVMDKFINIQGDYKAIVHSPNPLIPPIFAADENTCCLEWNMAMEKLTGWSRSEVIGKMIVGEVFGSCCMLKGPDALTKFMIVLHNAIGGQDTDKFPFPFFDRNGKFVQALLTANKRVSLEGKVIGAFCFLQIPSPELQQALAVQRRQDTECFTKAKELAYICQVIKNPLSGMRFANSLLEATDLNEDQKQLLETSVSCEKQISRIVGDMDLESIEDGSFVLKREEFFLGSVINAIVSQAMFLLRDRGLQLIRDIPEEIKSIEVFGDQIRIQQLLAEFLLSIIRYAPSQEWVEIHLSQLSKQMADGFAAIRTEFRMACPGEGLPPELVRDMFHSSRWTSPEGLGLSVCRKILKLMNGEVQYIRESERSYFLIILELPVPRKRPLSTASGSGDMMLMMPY

T3: phyB^Y276H, full length (Arabidopsis, UniProt P14713 1-1172, Y276H, PΦB chromophore covalently bound)
T3 construct: Arabidopsis phytochrome B, residues 1-1172, At2g18790, with Y276H; also called constitutively active mutant phyB^Y276H; source: E. coli BL21(DE3), co-expressed with HO1 and HY2, purified (Ni-NTA, anti-FLAG resin, Source Q); not shown: 3× Flag ([residues removed]), N-terminal, kept
T3 sequence (looked up): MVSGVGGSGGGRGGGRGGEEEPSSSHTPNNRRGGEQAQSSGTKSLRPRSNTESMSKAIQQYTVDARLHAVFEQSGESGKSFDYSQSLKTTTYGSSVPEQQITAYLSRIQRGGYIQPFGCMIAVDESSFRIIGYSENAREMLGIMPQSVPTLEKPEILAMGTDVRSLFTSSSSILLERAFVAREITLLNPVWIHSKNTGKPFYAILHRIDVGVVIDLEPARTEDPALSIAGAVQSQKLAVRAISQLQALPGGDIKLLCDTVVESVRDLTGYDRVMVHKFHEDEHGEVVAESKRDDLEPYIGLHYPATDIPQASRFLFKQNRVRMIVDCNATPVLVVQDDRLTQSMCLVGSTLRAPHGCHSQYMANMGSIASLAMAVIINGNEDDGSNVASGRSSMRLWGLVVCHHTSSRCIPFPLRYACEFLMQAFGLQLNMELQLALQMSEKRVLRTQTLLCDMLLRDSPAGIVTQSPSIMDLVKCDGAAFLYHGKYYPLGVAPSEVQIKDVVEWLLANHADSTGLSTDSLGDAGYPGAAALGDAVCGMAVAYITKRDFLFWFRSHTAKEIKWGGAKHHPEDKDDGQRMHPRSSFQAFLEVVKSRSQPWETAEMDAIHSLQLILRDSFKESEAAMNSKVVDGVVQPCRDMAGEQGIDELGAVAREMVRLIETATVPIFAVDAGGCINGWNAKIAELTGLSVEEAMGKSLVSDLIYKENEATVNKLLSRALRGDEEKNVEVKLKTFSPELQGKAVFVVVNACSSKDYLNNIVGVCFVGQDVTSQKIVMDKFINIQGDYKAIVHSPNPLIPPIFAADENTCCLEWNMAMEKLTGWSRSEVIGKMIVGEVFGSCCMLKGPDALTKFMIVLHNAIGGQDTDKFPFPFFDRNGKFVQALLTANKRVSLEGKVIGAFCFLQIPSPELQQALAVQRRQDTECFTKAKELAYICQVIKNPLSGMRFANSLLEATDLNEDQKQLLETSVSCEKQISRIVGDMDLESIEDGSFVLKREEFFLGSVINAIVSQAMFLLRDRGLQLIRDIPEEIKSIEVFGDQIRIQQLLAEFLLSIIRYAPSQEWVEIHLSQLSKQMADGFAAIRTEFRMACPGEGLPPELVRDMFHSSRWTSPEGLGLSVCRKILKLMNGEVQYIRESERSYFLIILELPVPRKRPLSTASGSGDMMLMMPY

B1: PIF6N (1‒64) (domain or fragment, Arabidopsis, UniProt Q8L5W7 1-64, looked up)
chain: MMFLPTDYCCRLSDQEYMELVFENGQILAKGQRSNVSLHNQRTKSIMDLYEAEYNEDFMKSIIH
notes: Arabidopsis PIF6, residues 1-64 (methods of the pull-down); the legends call PIF6N residues 1-60 and the results R11-S60; Probably in the modified pET15b vector (N-terminal His6, C-terminal StrepII) like the other PIFNs; also called N-terminus of PIF6β; source: E. coli BL21(DE3), purified
B2: PIF6αΔC (1‒247) (domain or fragment, Arabidopsis, UniProt Q8L5W7 1-247, looked up)
chain: MMFLPTDYCCRLSDQEYMELVFENGQILAKGQRSNVSLHNQRTKSIMDLYEAEYNEDFMKSIIHGGGGAITNLGDTQVVPQSHVAAAHETNMLESNKHVDDSETLKASSSKRMMVDYHNRKKIKFIPPDEQSVVADRSFKLGFDTSSVGFTEDSEGSMYLSSSLDDESDDARPQVPARTRKALVKRKRNAEAYNSPERNQRNDINKKMRTLQNLLPNSHKDDNESMLDEAINYMTNLQLQVQMMTMG
notes: Arabidopsis PIF6α, residues 1-247; also called PIF6ΔC; C-terminus-truncated PIF6α; source: E. coli BL21(DE3), purified (Ni-NTA, Strep-Tactin, Source Q); not shown: StrepII, C-terminal, kept

Columns and labels:
Settings in all cases: both partners purified
[1] = biological target: T1, phyBN (residues 1‒908 of phyB); assay: pull-down; StrepII-tagged PIF6N (1-64) and its mutants used to pull down Flag-tagged phyBN (Pfr) and its site-directed mutants; SDS-PAGE with Coomassie and zinc-induced fluorescence
[2] = biological target: T2, phytochrome B (phyB), full length …; assay: SEC; Superose 6 Increase 10/300 GL; 25 mM Tris-HCl pH 8.0, 150 mM NaCl, 5 mM DTT; red light-irradiated phyB; peak fractions on SDS-PAGE
[3] = biological target: T3, phyB^Y276H, full length; assay: pull-down; StrepII-tagged PIF6 forms or PIFNs held on Strep-Tactin Sepharose, 3× Flag-phyB or phyB^Y276H in the mixture; in the dark, 4 °C, 2 h; buffer E (100 mM Tris-HCl pH 8.0, 150 mM NaCl, 1 mM EDTA); SDS-PAGE with Coomassie and zinc-induced fluorescence
[4] = biological target: T2, phytochrome B (phyB), full length …; assay: pull-down; StrepII-tagged PIF6 forms or PIFNs held on Strep-Tactin Sepharose, 3× Flag-phyB in the mixture; red light (665 nm, 800 μmol m^-2 s^-1), 4 °C, 2 h; buffer E (100 mM Tris-HCl pH 8.0, 150 mM NaCl, 1 mM EDTA); eluted with D-desthiobiotin; SDS-PAGE with Coomassie and zinc-induced fluorescence

Row | Binder | binding result [1] | binding result [2] | binding result [3] | binding result [4]
1 | B1 | binds | binds |  | 
2 | B2 |  |  | binds | binds
